# In paper PMC7048787, “MCL1 binding to the reverse BH3 motif of P18INK4C couples cell survival to cell proliferation” (Cell Death & Disease, 2020):
# No end group written: not given here.
# B1: ANK4–5: P18 residues 106–168, retains the rBH3 domain and ankyrin repeat 4 (protein)
# chain: PLHLAAKEGHLRVVEFLVKHTASNVGHRNHKGDTACDLARLYGRNEVVSLMQANGAGGATNLQ
# modifications: left off: His6, N-terminal, state not stated
# B2: P18^INK4C: human P18 [Uniprot: P42773] (residues 1–168), His6-tagged recombinant protein (protein)
# chain: MAEPWGNELASAAARGDLEQLTSLLQNNVNVNAQNGFGRTALQVMKLGNPEIARRLLLRGANPDLKDRTGFAVIHDAARAGFLDTLQTLLEFQADVNIEDNEGNLPLHLAAKEGHLRVVEFLVKHTASNVGHRNHKGDTACDLARLYGRNEVVSLMQANGAGGATNLQ
# modifications: left off: His6, N-terminal, state not stated
# notes: human P18 [Uniprot: P42773]; (residues 1–168), His6-tagged recombinant protein
# B3: ANK1–4: P18 residues 1–140, truncation that removes the rBH3-containing fifth ankyrin repeat (protein)
# chain: MAEPWGNELASAAARGDLEQLTSLLQNNVNVNAQNGFGRTALQVMKLGNPEIARRLLLRGANPDLKDRTGFAVIHDAARAGFLDTLQTLLEFQADVNIEDNEGNLPLHLAAKEGHLRVVEFLVKHTASNVGHRNHKGDTA
# modifications: left off: His6, N-terminal, state not stated
# notes: P18 residues 1–140, truncation that removes the rBH3-containing fifth ankyrin repeat
# B4: P16: recombinant P16 [Uniprot: P42771] (residues 1–156), negative control (protein)
# chain: MEPAAGSSMEPSADWLATAAARGRVEEVRALLEAGALPNAPNSYGRRPIQVMMMGSARVAELLLLHGAEPNCADPATLTRPVHDAAREGFLDTLVVLHRAGARLDVRDAWGRLPVDLAEELGHRDVARYLRAAAGGTRGSNHARIDAAEGPSDIPD
# modifications: left off: His6, N-terminal, state not stated
# notes: recombinant P16 [Uniprot: P42771]; (residues 1–156), negative control
# B5: chimera: chimeric protein consisting of P16-ANK1–3 and P18-ANK4–5 (P16 residues 1–113 and P18 residues 106–168) (protein)
# chain: MEPAAGSSMEPSADWLATAAARGRVEEVRALLEAGALPNAPNSYGRRPIQVMMMGSARVAELLLLHGAEPNCADPATLTRPVHDAAREGFLDTLVVLHRAGARLDVRDAWGRLPLHLAAKEGHLRVVEFLVKHTASNVGHRNHKGDTACDLARLYGRNEVVSLMQANGAGGATNLQ
# modifications: left off: His6, N-terminal, state not stated
# B6: P18 protein (human P18INK4C residues 1-168), recombinant (natural protein, UniProt P42773 1-168, looked up)
# chain: B2 chain
# notes: Human P18 (P18INK4C, CDKN2C), residues 1-168, called full-length P18 protein in the results; The purification of this protein is not described; only that of His6-MCL1 is; also called CDKN2C; full-length P18 protein; source: E. coli BL21(DE3), recombinant
# B7: P18 21-mer peptide (P18 residues 141-161) (peptide, UniProt P42773 141-161, looked up)
# peptide: CDLARLYGRNEVVSLMQANGA
# notes: Human P18 (P18INK4C), residues 141-161, holding the rBH3 motif (150-161); Made on rink amide MBHA resin, so the C-terminus is probably an amide (surmised); also called P18x peptides; source: synthetic peptide
# System: recombinant MCL1 (rMCL1)
# Test: In vitro pulldown of recombinant MCL1 by recombinant P18/P16 constructs
# Format: binding, human
# Conditions: Western blot of in vitro pulldown, recombinant proteins (IP), rMCL1 (IB), Fig. 2b
# Excerpt: Human MCL1 [Uniprot: Q07820] (residues 163–326), human P18 [Uniprot: P42773] (residues 1–168), A1–4 (P18 residues 1–140), A4–5 (P18 residues 106–168), P16 [Uniprot: P42771] (residues 1–156), and AC (P16 residues 1–113 and P18 residues 106–168) were sequence-optimized for bacterial expression and cloned into the restriction sites of NdeI and HindIII in a pET28a vector (EMD Millipore) to incorporate a N-terminal hexa-histidine (His6) tag and transformed into BL21(DE3) E. Coli (New England Bio Labs). Cultures were grown under kanamycin selection in Luria broth to a 600 nm optical density of 0.6 and expression was induced by addition of 1 mM isopropyl β-D-1-thiogalactopyranoside (Thermo Fisher). Cultures were harvested 3–4 h after induction by centrifugation at 4700 × g. Resulting bacterial pellets were stored at −80 °C. His6-MCL1 bacterial pellets were re-suspended (10 mL/wet g of pellet) in Buffer A (1 × PBS, pH 6.8) with the addition of 1× lysozyme (0.25 mg/mL) (Thermo Fisher) and 1 protease inhibitor tablet (Pierce #88266), sonicated, and cleared at 14,000 × g. Resulting lysate was purified on NGC FPLC (Bio-Rad Laboratories) using a 1 mL HiTrap HP nickel column (GE Healthcare) equilibrated with Buffer A. Protein was eluted with a 2 mM–1000 mM imidazole gradient. His-MCL1 containing fractions, as identified by denaturing polyacrylamide gel electrophoresis, were further purified by gel filtration in Buffer B (1× PBS, pH 6.8) on a HiPrep 16/60 Sephacryl S-100 column (GE Healthcare). Resulting protein identity was confirmed by matrix-assisted laser desorption/ionization (MALDI) mass spectrometry.
# Fig. 2 MCL1 binds specifically to P18 through C-terminal rBH3. a Western blot of endogenous coIP of MCL1 (IP) with P18 (IB), BAX (IB), and P18 (IB) in WAC2. b Western blot of in vitro pulldown of recombinant proteins (IP), ANK1–4, ANK4–5, P18, p16, and chimera, with recombinant MCL1 (rMCL1) (IB). Cartoon of the p16, P18, and chimera proteins are shown below the blot. rBH3-containing helix is highlighted in yellow (Residues: 150–161). c Western blot of in vitro pulldown of recombinant P18 (IP) with rMCL1 (IB) with and without MCL1 inhibitor S63845.
# P18 is a member of the INK4 protein family [P16INK4A (P16, CDKN2A), P15INK4B (P15, CDKN2B), P18INK4C (P18, CDKN2C), and P19INK4D (P19, CDKN2D)] that regulate G1/S cell cycle progression with all INK4 proteins retaining homologous CDK4/6 inhibitory function. INK4 family proteins have homologous structures containing either four or five ankyrin (ANK) repeats, a helix-turn-helix structural unit known to mediate protein-protein interactions[15],[17]. […] The rBH3 in P18 resides in its fifth ankyrin repeat (residues 141–168). […] Based on prior stability studies of ankyrin repeats within INK4 family proteins[18],[19], we designed two truncations of P18 (Supplementary Table S1). The first, P18-ANK1–4 (ANK1–4), removes the rBH3-containing fifth ankyrin repeat. The second, P18-ANK4–5 (ANK4–5), retains the rBH3 domain as well as ankyrin repeat 4 to facilitate folding.
row,Molecule,pull-down of recombinant MCL1
1,B1,successfully pulled down MCL1
2,B2,successfully pulled down MCL1
3,B3,showed no interaction
4,B4,showed no interaction
5,B5,gained the ability to pulldown recombinant MCL1

# Target: T1, His6-MCL1 (human MCL1 residues 163-326) (human, UniProt Q07820 163-326)
# T1 construct: Named His6-MCL1 in the FPA; called rMCL1 in the pull-downs; also called His-MCL1; recombinant MCL1; source: E. coli BL21(DE3), purified (nickel column, gel filtration); not shown: His6, N-terminal, kept
# T1 sequence (Q07820 163-326): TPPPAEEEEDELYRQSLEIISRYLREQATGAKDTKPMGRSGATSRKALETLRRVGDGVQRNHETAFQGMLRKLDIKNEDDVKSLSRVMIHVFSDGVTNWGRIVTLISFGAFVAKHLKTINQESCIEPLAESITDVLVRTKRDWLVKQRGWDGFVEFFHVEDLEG
# Test: fluorescence polarisation; competition FPA: 100 nM His6-MCL1 with variable unlabeled P18 protein or peptides for 10 min at RT, then 10 nM FITC-AHX-BAK for 1 h; 1x PBS pH 7.4, 100 uL, 96-well plates
# Conditions: not given
row,Molecule,IC50 [nM]
1,P18 12-mer peptide (P18 rBH3) (from UniProt P42773 150-161),2500

# Same assay, conditions: both partners purified
row,Molecule,IC50 [nM]
1,B6,113
2,B7,778
3,CDLARLYGRNAVVSLMQANGA (not fully specified (C-terminus)) [P18 rBH3 peptide with alanine substitution of E151],> 30000
4,CDLARLYGRNEVVSLAQANGA (not fully specified (C-terminus)) [P18 rBH3 peptide with alanine substitution of M156],> 30000
